Assay in all cases: BLI, antibody on AHC sensor, antigen as analyte
Background: BLI is a label-free optical method that tracks binding on a fibre tip over time.

For experiment [1], the target named is T1, recombinant human protein CD3ε/δ (ACRO systems, CDD-H52W1) (human, UniProt P07766 23-126; P04234 22-105).
T1 construct: Bought heterodimer
As for the experimental part: (§1) Antibodies were first captured onto an anti-human IgG Fc coated AHC biosensor (Anti-hIgG Fc, Sartorius, 18-5060). Antibodies were diluted to 5 μg/mL and 1.5 nm protein was coupled to the AHC sensor surface in 0.02% PBST.
(§2) After the sensor captures the antibodies, it binds and dissociates with different concentrations of analytes to obtain the KD value of the interaction. The experimental parameters are as follows: Baseline1: 60 s, Loading: 240 s, Baseline2: 180 s, Association: 240 s, Dissociation: 600 s, High sensitivity kinetics: 2 Hz. Kinetic constants were derived based on the rate equation for 1:1 Langmuir binding to obtain equilibrium dissociation constants (KD). The Data Analysis HT 12 software (Sartorius, 50-5029) was used to simultaneously fit binding and dissociation curves to calculate Kₒₙ and Koff. The affinity KD was calculated based on the below formula: KD=Koff/Kₒₙ.

For experiment [2], the target named is T2, recombinant human tumor antigen CEA (CEACAM-5/CD66e, ACRO systems, CE5-H5226) (human, UniProt P06731 35-685).
T2 construct: Bought
T2 sequence (looked up): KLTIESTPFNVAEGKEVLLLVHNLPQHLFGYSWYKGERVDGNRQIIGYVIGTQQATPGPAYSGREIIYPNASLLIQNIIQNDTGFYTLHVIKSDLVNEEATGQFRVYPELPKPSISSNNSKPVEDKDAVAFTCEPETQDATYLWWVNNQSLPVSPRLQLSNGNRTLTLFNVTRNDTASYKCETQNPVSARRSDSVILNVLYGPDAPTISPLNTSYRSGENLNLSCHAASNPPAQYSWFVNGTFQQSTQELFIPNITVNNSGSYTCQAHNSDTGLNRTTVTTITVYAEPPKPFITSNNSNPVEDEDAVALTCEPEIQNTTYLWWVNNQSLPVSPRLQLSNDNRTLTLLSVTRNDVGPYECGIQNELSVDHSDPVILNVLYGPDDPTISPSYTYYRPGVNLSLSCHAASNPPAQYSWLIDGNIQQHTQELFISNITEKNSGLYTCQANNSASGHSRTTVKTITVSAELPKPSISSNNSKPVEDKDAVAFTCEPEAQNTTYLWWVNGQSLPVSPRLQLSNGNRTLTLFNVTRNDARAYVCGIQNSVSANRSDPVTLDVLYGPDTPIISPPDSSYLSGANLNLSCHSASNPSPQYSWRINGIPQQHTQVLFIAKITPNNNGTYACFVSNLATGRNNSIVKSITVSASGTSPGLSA
As for the experimental part: as §1, §2

The target in experiment [3] is T3, recombinant human tumor antigen HER2 (ERBB2, ACRO systems, HE2-H5212) (human, UniProt P04626 23-652).
T3 construct: Bought
On the procedure: as §1, §2

For experiment [4], the target named is T4, recombinant human tumor antigen CEACAM-6 (ACRO systems, CE6-H5223) (human, UniProt P40199 35-320).
T4 construct: Bought
T4 sequence (looked up): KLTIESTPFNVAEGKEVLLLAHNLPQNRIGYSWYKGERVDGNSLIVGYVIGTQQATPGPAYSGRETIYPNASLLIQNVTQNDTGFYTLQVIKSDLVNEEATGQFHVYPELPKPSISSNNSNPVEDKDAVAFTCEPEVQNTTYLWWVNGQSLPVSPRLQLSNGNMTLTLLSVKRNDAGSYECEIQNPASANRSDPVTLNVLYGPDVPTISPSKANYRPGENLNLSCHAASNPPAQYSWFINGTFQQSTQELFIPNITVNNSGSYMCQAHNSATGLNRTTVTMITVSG

Experiment [5] concerns the target T3, recombinant human tumor antigen HER2 …. The source holds these as a separate data set.
Experiment [6] deals with T1, recombinant human protein CD3ε/δ (ACRO …). This is another data set of the same source.

Where two headings read alike, the source gives them in different places.

Usually Kd stands for the equilibrium constant for the complex coming apart. As a reminder, the koff is the rate constant with which the complex falls apart. Usually kon stands for the second-order rate constant of association.

T1 sequence (P07766 23-126, stated change not applied, chain 1 of 2): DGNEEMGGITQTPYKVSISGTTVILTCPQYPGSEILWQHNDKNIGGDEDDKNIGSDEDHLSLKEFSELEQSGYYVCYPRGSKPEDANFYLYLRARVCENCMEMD
T1 sequence (P04234 22-105, stated change not applied, chain 2 of 2): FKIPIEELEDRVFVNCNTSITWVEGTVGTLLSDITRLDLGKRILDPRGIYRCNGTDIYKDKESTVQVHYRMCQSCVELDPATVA

B1: unilateral CD3/CEA/HER2 trispecific antibody 610 (other)
chain 1: EVQLVESGGGFVQAGESLTLSCTSSTLTFTPYRMAWYRQAPGKQRDLVADISSGDGRTTNYADFAKGRFTISRDNIKNTVFLRMTNLKPEDTAVYYCNTFVSFVGIARSWGQGTQVTVSSESKYGPPCPPCPAPEAAGGPSVFLFPPKPKDTLMISRTPEVTCVVVDVSQEDPEVQFNWYVDGVEVHNAKTKPREEQFNSTYRVVSVLTVLHQDWLNGKEYKCKVSNKGLPSSIEKTISKAKGQPREPQVYTLPPCQEEMTKNQVSLWCLVKGFYPSDIAVEWESNGQPENNYKTTPPVLDSDGSFFLYSRLTVDKSRWQEGNVFSCSVMHEALHNHYTQKSLSLSL
chain 2: EVKLLESGGGLVQPKGSLKLSCAASGFTFNTYAMNWVRQAPGKGLEWVARIRSKYNNYATYYADSVKDRFTISRDDSQSILYLQMNNLKTEDTAMYYCVRHGNFGNSYVSWFAYWGQGTLVTVSSASTKGPSVFPLAPCSRSTSESTAALGCLVKDYFPEPVTVSWNSGALTSGVHTFPAVLQSSGLYSLSSVVTVPSSSLGTKTYTCNVDHKPSNTKVDKRVESKYGPPCPPCPAPEAAGGPSVFLFPPKPKDTLMISRTPEVTCVVVDVSQEDPEVQFNWYVDGVEVHNAKTKPREEQFNSTYRVVSVLTVLHQDWLNGKEYKCKVSNKGLPSSIEKTISKAKGQPREPQVCTLPPSQEEMTKNQVSLSCAVKGFYPSDIAVEWESNGQPENNYKTTPPVLDSDGSFFLVSRLTVDKSRWQEGNVFSCSVMHEALHNRFTQKSLSLSL
chain 3: QVQLVQSGGGLVQAGGSLRLSCAASGRTFSSYAMAWFRQAPGKEREFVAAISWSGANIYVADSVKGRFTISRDNAKDTVYLQMNSLKPEDTAVYYCAVKLGFAPVEERQYDYWGQGTQVTVSSGGGGSGGGGSQAVVTQESALTTSPGETVTLTCRSSTGAVTTSNYANWVQEKPDHLFTGLIGGTNKRAPGVPARFSGSLIGDKAALTITGAQTEDEAIYFCALWYSNLWVFGGGTKVEIKRTVAAPSVFIFPPSDEQLKSGTASVVCLLNNFYPREAKVQWKVDNALQSGNSQESVTEQDSKDSTYSLSSTLTLSKADYEKHKVYACEVTHQGLSSPVTKSFNRGEC
As to B1, the Kd in experiment [1] is 1.47 nM; in experiment [2], 0.153 nM; in experiment [3] it was 53.5 nM. The koff in experiment [1] came out at 0.000402 s⁻¹; in experiment [2], 8.05e-05 s⁻¹; in experiment [3], 0.00914 s⁻¹. The kon in experiment [1] turned out to be 273000 M⁻¹ s⁻¹; in experiment [2] it was 525000 M⁻¹ s⁻¹; in experiment [3], 171000 M⁻¹ s⁻¹.

B2: CEA-BsAb (CD3 TA1-Fab x CEA VHH bispecific control antibody) (bispecific antibody, human IgG4 S228P, kappa, F234A L235A)
heavy: EVKLLESGGGLVQPKGSLKLSCAASGFTFNTYAMNWVRQAPGKGLEWVARIRSKYNNYATYYADSVKDRFTISRDDSQSILYLQMNNLKTEDTAMYYCVRHGNFGNSYVSWFAYWGQGTLVTVSSASTKGPSVFPLAPCSRSTSESTAALGCLVKDYFPEPVTVSWNSGALTSGVHTFPAVLQSSGLYSLSSVVTVPSSSLGTKTYTCNVDHKPSNTKVDKRVESKYGPPCPPCPAPEAAGGPSVFLFPPKPKDTLMISRTPEVTCVVVDVSQEDPEVQFNWYVDGVEVHNAKTKPREEQFNSTYRVVSVLTVLHQDWLNGKEYKCKVSNKGLPSSIEKTISKAKGQPREPQVYTLPPCQEEMTKNQVSLWCLVKGFYPSDIAVEWESNGQPENNYKTTPPVLDSDGSFFLYSRLTVDKSRWQEGNVFSCSVMHEALHNHYTQKSLSLSL
chain: EVQLVESGGGFVQAGESLTLSCTSSTLTFTPYRMAWYRQAPGKQRDLVADISSGDGRTTNYADFAKGRFTISRDNIKNTVFLRMTNLKPEDTAVYYCNTFVSFVGIARSWGQGTQVTVSSESKYGPPCPPCPAPEAAGGPSVFLFPPKPKDTLMISRTPEVTCVVVDVSQEDPEVQFNWYVDGVEVHNAKTKPREEQFNSTYRVVSVLTVLHQDWLNGKEYKCKVSNKGLPSSIEKTISKAKGQPREPQVCTLPPSQEEMTKNQVSLSCAVKGFYPSDIAVEWESNGQPENNYKTTPPVLDSDGSFFLVSRLTVDKSRWQEGNVFSCSVMHEALHNRFTQKSLSLSL
light: QAVVTQESALTTSPGETVTLTCRSSTGAVTTSNYANWVQEKPDHLFTGLIGGTNKRAPGVPARFSGSLIGDKAALTITGAQTEDEAIYFCALWYSNLWVFGGGTKVEIKRTVAAPSVFIFPPSDEQLKSGTASVVCLLNNFYPREAKVQWKVDNALQSGNSQESVTEQDSKDSTYSLSSTLTLSKADYEKHKVYACEVTHQGLSSPVTKSFNRGEC
For B2, in experiment [1], the Kd was 1.64 nM, the koff was found to be 0.00045 s⁻¹ and the kon worked out at 275000 M⁻¹ s⁻¹. Also, in experiment [3], the koff turned out to be 0.027 s⁻¹ and the kon turned out to be 3680 M⁻¹ s⁻¹.

B3: unilateral CD3/CEA-CAM6/HER2 trispecific antibody 711 (other)
chain 1: QVQLVQSGGGLVQAGGSLRLSCAASGRTFSSYAMAWFRQAPGKEREFVAAISWSGANIYVADSVKGRFTISRDNAKDTVYLQMNSLKPEDTAVYYCAVKLGFAPVEERQYDYWGQGTQVTVSSGGGGSGGGGSEVKLLESGGGLVQPKGSLKLSCAASGFTFNTYAMNWVRQAPGKGLEWVARIRSKYNNYATYYADSVKDRFTISRDDSQSILYLQMNNLKTEDTAMYYCVRHGNFGNSYVSWFAYWGQGTLVTVSSASTKGPSVFPLAPCSRSTSESTAALGCLVKDYFPEPVTVSWNSGALTSGVHTFPAVLQSSGLYSLSSVVTVPSSSLGTKTYTCNVDHKPSNTKVDKRVESKYGPPCPPCPAPEAAGGPSVFLFPPKPKDTLMISRTPEVTCVVVDVSQEDPEVQFNWYVDGVEVHNAKTKPREEQFNSTYRVVSVLTVLHQDWLNGKEYKCKVSNKGLPSSIEKTISKAKGQPREPQVYTLPPCQEEMTKNQVSLWCLVKGFYPSDIAVEWESNGQPENNYKTTPPVLDSDGSFFLYSRLTVDKSRWQEGNVFSCSVMHEALHNHYTQKSLSLSL
chain 2: QVKLEESGGGLVQAGGSLRLSCRTSGRTNSVYTMGWFRQAPGKEREFVAQIMWGAGTNTHYADSVKGRFTISRDSAESTVYLQMNSLKPEDTAVYYCAANRGIPIAGRQYDYWGQGTQVTVSSESKYGPPCPPCPAPEAAGGPSVFLFPPKPKDTLMISRTPEVTCVVVDVSQEDPEVQFNWYVDGVEVHNAKTKPREEQFNSTYRVVSVLTVLHQDWLNGKEYKCKVSNKGLPSSIEKTISKAKGQPREPQVCTLPPSQEEMTKNQVSLSCAVKGFYPSDIAVEWESNGQPENNYKTTPPVLDSDGSFFLVSRLTVDKSRWQEGNVFSCSVMHEALHNRFTQKSLSLSL
chain 3: QAVVTQESALTTSPGETVTLTCRSSTGAVTTSNYANWVQEKPDHLFTGLIGGTNKRAPGVPARFSGSLIGDKAALTITGAQTEDEAIYFCALWYSNLWVFGGGTKVEIKRTVAAPSVFIFPPSDEQLKSGTASVVCLLNNFYPREAKVQWKVDNALQSGNSQESVTEQDSKDSTYSLSSTLTLSKADYEKHKVYACEVTHQGLSSPVTKSFNRGEC
Consider B3, for which the Kd in experiment [4] is 4.52 nM; in experiment [5], 38.9 nM; in experiment [6] it was 1.41 nM. In addition, the values for the koff in experiment [4], in experiment [5] and in experiment [6] were 0.00254 s⁻¹, 0.00888 s⁻¹ and 0.000516 s⁻¹, respectively. Further, the kon in experiment [4] was 562000 M⁻¹ s⁻¹; in experiment [5], 228000 M⁻¹ s⁻¹; in experiment [6], 367000 M⁻¹ s⁻¹.

Values taken from patent publication US20240409635A1 (VIBRANT PHARMA, published 2024).
